Values of other authors in paper PMC2917178.

Target: Lys66 (UniProt position 148, FTKKMKENAKK)
Conditions: native (folded) state

Substance: Staphylococcal nuclease V66K variant (Staphylococcus aureus; V66K)
- pKa: 6.4
